In patent US20020127232A1:

How the values were obtained:
[1] = biological target: α2M receptor on peritoneal macrophages of C57BL/6 mice (mouse) (UniProt Q91ZX7); experiment: saturation binding of 125I-labeled ligand (0.23-60 nM) to mouse peritoneal macrophages at 4 °C for 16 h; one-site fit; concentration based on the mixture of slow and fast forms
[2] = biological target: α2M receptor on peritoneal macrophages of C57BL/6 mice (mouse) (UniProt Q91ZX7); experiment: saturation binding of 125I-labeled ligand (0.23-60 nM) to mouse peritoneal macrophages at 4 °C for 16 h; one-site fit

Molecule	Kd [1]	Kd [2]
α2M*-lysozyme complex formed by incubation at 50° C. (5 h), radio-iodinated with Na125I (from UniProt P01023 24-1474; P00698 19-147)	8 nM	
α2-macroglobulin* (NH3-treated, thiol ester-cleaved human α2-macroglobulin) (protein, UniProt P01023 24-1474, looked up, thiol ester cleaved by NH3: free Cys949, Gln952 modified with -NH2; bait region intact; radio-iodinated with Na125I in the macrophage binding study) SVSGKPQYMVLVPSLLHTETTEKGCVLLSYLNETVTVSASLESVRGNRSLFTDLEAENDVLHCVAFAVPKSSSNEEVMFLTVQVKGPTQEFKKRTTVMVKNEDSLVFVQTDKSIYKPGQTVKFRVVSMDENFHPLNELIPLVYIQDPKGNRIAQWQSFQLEGGLKQFSFPLSSEPFQGSYKVVVQKKSGGRTEHPFTVEEFVLPKFEVQVTVPKIITILEEEMNVSVCGLYTYGKPVPGHVTVSICRKYSDASDCHGEDSQAFCEKFSGQLNSHGCFYQQVKTKVFQLKRKEYEMKLHTEAQIQEEGTVVELTGRQSSEITRTITKLSFVKVDSHFRQGIPFFGQVRLVDGKGVPIPNKVIFIRGNEANYYSNATTDEHGLVQFSINTTNVMGTSLTVRVNYKDRSPCYGYQWVSEEHEEAHHTAYLVFSPSKSFVHLEPMSHELPCGHTQTVQAHYILNGGTLLGLKKLSFYYLIMAKGGIVRTGTHGLLVKQEDMKGHFSISIPVKSDIAPVARLLIYAVLPTGDVIGDSAKYDVENCLANKVDLSFSPSQSLPASHAHLRVTAAPQSVCALRAVDQSVLLMKPDAELSASSVYNLLPEKDLTGFPGPLNDQDNEDCINRHNVYINGITYTPVSSTNEKDMYSFLEDMGLKAFTNSKIRKPKMCPQLQQYEMHGPEGLRVGFYESDVMGRGHARLVHVEEPHTETVRKYFPETWIWDLVVVNSAGVAEVGVTVPDTITEWKAGAFCLSEDAGLGISSTASLRAFQPFFVELTMPYSVIRGEAFTLKATVLNYLPKCIRVSVQLEASPAFLAVPVEKEQAPHCICANGRQTVSWAVTPKSLGNVNFTVSAEALESQELCGTEVPSVPEHGRKDTVIKPLLVEPEGLEKETTFNSLLCPSGGEVSEELSLKLPPNVVEESARASVSVLGDILGSAMQNTQNLLQMPYGCGEQNMVLFAPNIYVLDYLNETQQLTPEIKSKAIGYLNTGYQRQLNYKHYDGSYSTFGERYGRNQGNTWLTAFVLKTFAQARAYIFIDEAHITQALIWLSQRQKDNGCFRSSGSLLNNAIKGGVEDEVTLSAYITIALLEIPLTVTHPVVRNALFCLESAWKTAQEGDHGSHVYTKALLAYAFALAGNQDKRKEVLKSLNEEAVKKDNSVHWERPQKPKAPVGHFYEPQAPSAEVEMTSYVLLAYLTAQPAPTSEDLTSATNIVKWITKQQNAQGGFSSTQDTVVALHALSKYGAATFTRTGKAAQVTIQSSGTFSSKFQVDNNNRLLLQQVSLPELPGEYSMKVTGEGCVYLQTSLKYNILPEKEEFPFALGVQTLPQTCDEPKAHTSFQISLSVSYTGSRSASNMAIVDVKMVSGFIPLKPTVKMLERSNHVSRTEVSSNHVLIYLDKVSNQTLSLFFTVLQDVPVRDLKPAIVKVYDYYETDEFAIAEYNAPCSKDLGNA		5 nM
